Assay results: patent publication US20220403001A1, “PDE5 DERIVED REGULATORY CONSTRUCTS AND METHODS OF USE IN IMMUNOTHERAPY” (Obsidian Therapeutics, Inc., priority 2018, published 2022)

Key:
hPDE5 mutants [1] = biological target: T1, hPDE5 mutants (Homo sapiens, UniProt O76074); assay: GFP FACS analysis of hPDE5 mutant library clones in NIH3T3 cell pools; conditions: experiment 1; for Stabilization ratio: GFP intensity 10 μM vardenafil vs DMSO; for Destabilizing mutation co-efficient: GFP intensity mutant vs PDE5 wildtype construct in absence of ligand; for MFI 10 μM VDF / MFI DMSO: GFP, NIH3T3 cell pools; for MFI 10 μM VDF: 10 μM vardenafil 24 hr; for MFI DMSO: no ligand (DMSO)
Method: These constructs were packaged into lentivirus, transduced into NIH3T3 cells and select stable cell pools were derived as described below. […] Lentiviral stocks were used for transduction of NIH3T3 cells and subsequent cell pool selection. The day before transduction, NIH3T3 cells (1.8×10^6) were seeded in a T-25 flask and allowed to reach 60-70% confluency (˜1 day). The growth medium in the T-25 flask was then replaced with 1 mL virus (quickly thawed in a 37° C. water bath) and 5 μg/mL polybrene. […] Transduction medium was removed the following day and replaced with 5 mL fresh medium. At 48 hr after transduction, the medium was replaced with media containing 1 μg/mL puromycin. This puromycin medium was replaced every 3-4 days until cell pools were established (˜2 weeks).
The mean fluorescence intensity (MFI) of GFP at 100 μM concentration treatment was set as 100% hPDE5 stabilization effect (HPE), while DMSO treatment was set as 0% effect (ZPE) of hPDE5 stabilization. The effect of the compound on hPDE5 stabilization was calculated based on the following formula: % PDE5 stabilization effect=(MFI-ZPE)/(HPE-ZPE)×100.
Plots of the % effect versus concentration were generated with Graphpad Prism 5 and EC50 values were calculated using a four-parameter nonlinear regression model.
Select PDE5 clones from both experiment 1 and experiment 2 were directly compared. […] The stabilization ratio was calculated as the fold change in GFP intensity in ligand treated samples compared to treatment with DMSO (i.e. in the absence of ligand) with the same construct.

hPDE5 mutants [2] = biological target: T1, hPDE5 mutants; assay: GFP MFI by FACS in HCT116 cells transduced with hPDE5 constructs; format: cell-based
Method: (§1) Desirable qualities of a DD include, low expression of the SRE in the absence of ligand and ligand dependent stabilization of the SRE. Constructs were generated using DDs linked to GFP using an SG linker. […] The mean fluorescence intensity (MFI) of GFP was analyzed by FACS. […] Destabilizing mutation coefficient less than 1 are desirable.
(§2) Mean fluorescence intensity (MFI) was measured by FACS. […] Destabilizing mutation coefficient ratios less than 1 are desirable.
(§3) Mean fluorescence intensity (MFI) was measured by FACS. […] Destabilizing mutation co-efficient ratios less than 1 are desirable.
(§4) Mean fluorescence intensity (MFI) was measured by FACS. […] Destabilizing mutation coefficient less than 1 are desirable.
as §4
(§5) Mean fluorescence intensity (MFI) of GFP was measured by FACS.
(§6) Mean fluorescence intensity (MFI) was measured by FACS.
(§7) The media containing the ligand was removed and fresh media without the ligand was added.
(§8) The properties of the DDs were analyzed in the presence and absence of ligands via FACS as previously described.
(§9) GFP fluorescence was measured by FACS.
(§10) The properties of the DDs were analyzed via FACS both in the presence and absence of ligands.
as §9

hPDE5 mutants [3] = assay: as above; format: cell-based, human
Method: as §1, §2, §3, §4, §4, §5, §6, §7, §8, §9, §10, §9

[4] = Off-kinetics, time 50 hrs (ligand removed at 48 h)
[5] = Off-kinetics, time 52 hrs (ligand removed at 48 h)
[6] = Off-kinetics, time 54 hrs (ligand removed at 48 h)
[7] = Off-kinetics, time 56 hrs (ligand removed at 48 h)
[8] = Off-kinetics, time 60 hrs (ligand removed at 48 h)
[9] = Off-kinetics, time 72 hrs (ligand removed at 48 h)
[10] = Off-kinetics, time 80 hrs (ligand removed at 48 h)
[11] = Off-kinetics, time 96 hrs (ligand removed at 48 h)

Question: Which “Stabilization ratio” value (hPDE5 mutants [1]) does the source give for “LibC000016: hPDE5 (Amino acid 535-860 of WT, Q743L), DD generated by random mutagenesis” here?
Answer: 2.4

Question: What about the Destabilizing mutation co-efficient (hPDE5 mutants [1]) of the same substance?
Answer: 0.51

Question: And the “MFI 10 μM VDF” value (hPDE5 mutants [1])?
Answer: 6869

Question: What about the “MFI DMSO” value (hPDE5 mutants [1]) of the same substance?
Answer: 2895

Question: With “LibC000017: hPDE5 (Amino acid 535-860 of WT, Y709H, F787V), DD generated by random mutagenesis” as the substance, how does the “Stabilization ratio” value (hPDE5 mutants [1]) read?
Answer: 2.9

Question: What about the Destabilizing mutation co-efficient (hPDE5 mutants [1]) of the same substance?
Answer: 0.39

Question: What about the “MFI 10 μM VDF” value (hPDE5 mutants [1]) of the same substance?
Answer: 6530

Question: What about the “MFI DMSO” value (hPDE5 mutants [1]) of the same substance?
Answer: 2244

Question: How did the “Stabilization ratio” value (hPDE5 mutants [1]) turn out when “LibC000018: hPDE5 (Amino acid 535-860 of WT, N605Y, I715K), DD generated by random mutagenesis” was run?
Answer: 3.0

Question: And the Destabilizing mutation co-efficient (hPDE5 mutants [1])?
Answer: 0.18

Question: And the “MFI 10 μM VDF” value (hPDE5 mutants [1])?
Answer: 3102

Question: What about the “MFI DMSO” value (hPDE5 mutants [1]) of the same substance?
Answer: 1038

Question: Which results are given for “LibC000019: hPDE5 (Amino acid 535-860 of WT, F564I, N662Y, H685L, L693P, F736I), DD generated by random mutagenesis”?
Answer: Stabilization ratio (hPDE5 mutants [1]): 0.9; Destabilizing mutation co-efficient (hPDE5 mutants [1]): 0.06; MFI 10 μM VDF (hPDE5 mutants [1]): 285; MFI DMSO (hPDE5 mutants [1]): 320

Question: Which “Stabilization ratio” value (hPDE5 mutants [1]) does the source give for “LibC000021: hPDE5 (Amino acid 535-860 of WT, V594I), DD generated by random mutagenesis” here?
Answer: 2.6

Question: And the Destabilizing mutation co-efficient (hPDE5 mutants [1])?
Answer: 0.30

Question: And the “MFI 10 μM VDF” value (hPDE5 mutants [1])?
Answer: 4440

Question: And the “MFI DMSO” value (hPDE5 mutants [1])?
Answer: 1732

Question: How did the “Stabilization ratio” value (hPDE5 mutants [1]) turn out when “LibC000023: hPDE5 (Amino acid 535-860 of WT, E858V), DD generated by random mutagenesis” was run?
Answer: 1.4

Question: What about the Destabilizing mutation co-efficient (hPDE5 mutants [1]) of the same substance?
Answer: 0.77

Question: What about the “MFI 10 μM VDF” value (hPDE5 mutants [1]) of the same substance?
Answer: 6121

Question: And the “MFI DMSO” value (hPDE5 mutants [1])?
Answer: 4386

Question: How did the “Stabilization ratio” value (hPDE5 mutants [1]) turn out when “LibC000024: hPDE5 (Amino acid 535-860 of WT, T784I), DD generated by random mutagenesis” was run?
Answer: 1.4

Question: And the Destabilizing mutation co-efficient (hPDE5 mutants [1])?
Answer: 0.88

Question: What about the “MFI 10 μM VDF” value (hPDE5 mutants [1]) of the same substance?
Answer: 6905

Question: And the “MFI DMSO” value (hPDE5 mutants [1])?
Answer: 5039

Question: What does the source list for OT-001186: hPDE5 R732G AcGFP construct?
Answer: GFP by FACS, Sildenafil 10 μM (hPDE5 mutants [2]; hotspot constructs, HCT116): 288; GFP by FACS, Vardenafil 1 μM (hPDE5 mutants [2]; hotspot constructs, HCT116): 854; GFP by FACS, Sildenafil 0 μM (DMSO) (hPDE5 mutants [3]; hotspot constructs, HCT116, DMSO control of Sildenafil): 298; GFP by FACS, Vardenafil 0 μM (DMSO) (hPDE5 mutants [3]; hotspot constructs, HCT116, DMSO control of Vardenafil): 176

Question: With “OT-001216: hPDE5 wildtype construct linked to GFP” as the substance, how does the “Sildenafil Stabilization ratio” value (hPDE5 mutants [2]; 10 μM, 48 h, HCT-116) read?
Answer: 1.03

Question: And the “Vardenafil Stabilization ratio” value (hPDE5 mutants [2]; 10 μM, 48 h, HCT-116)?
Answer: 1.04

Question: And the “MFI Sildenafil” value (hPDE5 mutants [2]; GFP, 10 μM Sildenafil 48 h, HCT-116)?
Answer: 66860

Question: What about the “MFI Vardenafil” value (hPDE5 mutants [2]; GFP, 10 μM Vardenafil 48 h, HCT-116) of the same substance?
Answer: 67388

Question: What about the “MFI DMSO” value (hPDE5 mutants [3]; GFP, DMSO 48 h, HCT-116) of the same substance?
Answer: 64942

Question: What about the Stabilization ratio (hPDE5 mutants [3]; Off-kinetics, time 48 hrs (after 48 h ligand treatment)) of the same substance?
Answer: 2.24

Question: What about the MFI (hPDE5 mutants [3]; Off-kinetics, time 48 hrs (after 48 h ligand treatment), HCT 116) of the same substance?
Answer: 102137

Question: And the MFI (hPDE5 mutants [3]; [4])?
Answer: 97225

Question: And the Stabilization ratio (hPDE5 mutants [3]; [4])?
Answer: 2.14

Question: And the MFI (hPDE5 mutants [3]; [5])?
Answer: 96264

Question: What about the Stabilization ratio (hPDE5 mutants [3]; [5]) of the same substance?
Answer: 2.12

Question: And the MFI (hPDE5 mutants [3]; [6])?
Answer: 95410

Question: What about the Stabilization ratio (hPDE5 mutants [3]; [6]) of the same substance?
Answer: 2.10

Question: And the MFI (hPDE5 mutants [3]; [7])?
Answer: 81733

Question: And the Stabilization ratio (hPDE5 mutants [3]; [7])?
Answer: 1.80

Question: What about the MFI (hPDE5 mutants [3]; [8]) of the same substance?
Answer: 84323

Question: And the Stabilization ratio (hPDE5 mutants [3]; [8])?
Answer: 1.85

Question: And the MFI (hPDE5 mutants [3]; [9])?
Answer: 70151

Question: What about the Stabilization ratio (hPDE5 mutants [3]; [9]) of the same substance?
Answer: 1.54

Question: And the MFI (hPDE5 mutants [3]; [10])?
Answer: 63208

Question: And the Stabilization ratio (hPDE5 mutants [3]; [10])?
Answer: 1.39

Question: And the MFI (hPDE5 mutants [3]; [11])?
Answer: 55918

Question: And the Stabilization ratio (hPDE5 mutants [3]; [11])?
Answer: 1.23

Question: And the MFI (hPDE5 mutants [3]; Sildenafil 30 μM, 24 h, HCT116)?
Answer: 75478

Question: What about the Stabilization ratio (hPDE5 mutants [3]; Sildenafil 30 μM, 24 h, HCT116) of the same substance?
Answer: 1.22

Question: And the MFI (hPDE5 mutants [3]; Tadalafil 100 μM, 24 h, HCT116)?
Answer: 58468

Question: And the Stabilization ratio (hPDE5 mutants [3]; Tadalafil 100 μM, 24 h, HCT116)?
Answer: 1.60

Question: What about the MFI (hPDE5 mutants [3]; Vardenafil 30 μM, 24 h, HCT116) of the same substance?
Answer: 70898

Question: What about the Stabilization ratio (hPDE5 mutants [3]; Vardenafil 30 μM, 24 h, HCT116) of the same substance?
Answer: 1.14
